Bounds are passed on as bounds.

From patent publication US5639868, “High-affinity RNA ligands for basic fibroblast growth factor” (NeXstar Pharmaceuticals, Inc.) come the findings set out here.

Data set [1] has as its target T1, basic fibroblast growth factor (bFGF, FGF-2) (UniProt P09038 P09038:135-288). Put plainly: inhibition; 125I-bFGF binding to high-affinity receptor, BHK cells, 4 C. The conditions noted are these: tags: Bachem California; 18 kDa, 154 amino acids; label: 125I. As for the experimental part:
Receptor Binding Studies. bFGF was labeled with ^125I by the Iodo-Gen (Pierce) procedure as described by Moscatelli (1987) supra. […] The amount of 125I-bFGF bound to the low- and the high-affinity receptor sites was determined as described by Moscatelli (1987) supra.

The target of data set [2] is T1, basic fibroblast growth factor (bFGF, …). The data set is described as follows: filter; binding curve in figure only; PBS, 0.01% HSA, 1 mM DTT, 37 C. The following applies: tags: Bachem California; 18 kDa, 154 amino acids. As for the experimental part:
Binding curves for modified RNA ligands 21A, 38B and random RNAs were determined (FIG. 8). RNA concentrations were determined from their absorbance reading at 260 nm and were typically less than 100 pM. Binding reactions were conducted at 37° C. in phosphate buffered saline containing 0.01% human serum albumin and 1 mM DTT. Heparin competitively displaced RNA ligands from both sequence families (FIG. 3), although higher concentrations of heparin were required to displace members of family 2 from bFGF.
(§1) This affinity screening allowed identification of those ligands with highest affinity for bFGF. Binding of a group of these ligands was analyzed over a range of bFGF concentrations (FIG. 8) and their dissociation constants (Kd's) were determined as described (Jellinek et al. (1993) Proc. Natl. Acad. Sci. U.S.A. 90:11227–11231) (Table IX). RNA concentrations were determined from their absorbance reading at […] (and were typically <100 pM). Binding reactions were done at 37° C. in phosphate buffered saline containing 0.01% human serum albumin and 1 mM DTT.

Data set [3] shares this target. Put plainly: filter; biphasic, Kd1 (mole fraction 0.5); Kd2 = 180 nM. The conditions noted are these: tags: Bachem California; 18 kDa, 154 amino acids. As for the experimental part:
as §1
(§2) The minimal sequence information required for high-affinity binding to bFGF was examined for several of the 2'-NH_2 modified ligands by deletion analyses as described (Tuerk et al. (1990) J. Mol. Biol. 213:749–761).

Data set [4] shares this target. The data set is described as follows: filter; monophasic. The following applies: tags: Bachem California; 18 kDa, 154 amino acids. As for the experimental part:
as §1, §2

For data set [5] the target is unchanged. Put plainly: filter; biphasic, Kd1 (mole fraction 0.5); Kd2 = 270 nM. The following applies: tags: Bachem California; 18 kDa, 154 amino acids. As for the experimental part:
as §1, §2

T1 sequence (P09038 135-288, one chain of several): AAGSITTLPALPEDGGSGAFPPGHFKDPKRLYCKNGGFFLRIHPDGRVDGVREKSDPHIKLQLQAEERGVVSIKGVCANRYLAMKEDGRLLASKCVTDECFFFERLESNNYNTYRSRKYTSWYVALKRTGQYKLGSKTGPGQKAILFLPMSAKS

B1: 5A (ssRNA)
RNA: GGGAGCUCAGAAUAAACGCUCAAAUCUCCUCCCGUCGAAGCUAACCUGGCCACUUCGACAUGAGGCCCGGAUCCGGC
B1 showed an IC50 in data set [1] of around 1000 nM.

B2: 7A (ssRNA)
RNA: GGGAGCUCAGAAUAAACGCUCAAUCGGCGAGCUAACCAAGACACUCGCUGCACUUCGACAUGAGGCCCGGAUCCGGC
With B2, in data set [1], the IC50 was around 1000 nM.

B3: 12A (ssRNA)
RNA: GGGAGCUCAGAAUAAACGCUCAAGGGGCAACGCUACAGACAAGUGCACCCAACUUCGACAUGAGGCCCGGAUCCGGC
In turn, B3 gave an IC50 in data set [1] above 1000 nM.

B4: 2'-NH2 38B (ssRNA)
RNA: GGGAGGACGAUGCGGGCUGCGGUGCGCAUGUGUGGAAGACAGAGGGAGGUUAGAAUCGUGCCGCCAGACGACUCGCCCGA
modifications: 2'-NH2 at all C and U
Take B4: in data set [2], the binding result is recorded as “binds”.

B5: 26A (ssRNA)
RNA: GGGAGCUCAGAAUAAACGCUCAACGUCAGAAGGCAACGUAUAGGCAAGCACACUUCGACAUGAGGCCCGGAUCCGGC
The molecule B5 gave an IC50 in data set [1] of around 1000 nM.

On to GGACGGCGUGGUCCGAGGGUGGCGAGU (ssRNA, 2'-NH2 at all C and U) [2'-NH2 58A-t], for which, in data set [3], binding was characterised by a dissociation constant (Kd) of 1.8 nM. In data set [4], GGAGGACGAUGCGGAACGGGAGGUACGAGAGCGGGAGC (ssRNA, 2'-NH2 at all C and U) [2'-NH2 34B-t] returned a Kd of 3 nM. Take GGUGUGUGGAAGACAGCGGGUGGUUC (ssRNA, 2'-NH2 at all C and U) [2'-NH2 21A-t]: in data set [5], the Kd was determined as 0.1 nM.

One may read the IC50 as the point on the concentration scale where inhibition reaches its midpoint. One may read the Kd as the concentration at which binding is half-saturated.
